Laboratory results: the domain aggregation screens of Martell et al. (2025)

Assay: soluble fraction after stress (log2 fold change); higher = more stays soluble; pooled small domains, quantitative proteomics
Settings: stress: 50 degC
Outline: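 The stress applied to every library was 50°C. These custom libraries of small protein domains were pooled and measured at high throughput with quantitative proteomics as the read-out. Aggregation propensity is expressed as the base-two logarithm of the fold change in how much of each protein remains soluble. The higher the value, the more of that protein stays in solution.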

Compared with “HMDNVLGKSGKVIFVNEEINSYGRAFIPGHGEWNIRTKSDQNIHINDGIKVIERDGITLVVEL”, “HMDPERLDQLQNPDPAVRREAIIALGRSKDLAALPELAKVYKNDPVPELRELARQAGRYIQQENRP” is higher in “soluble fraction (log2)” value: -1.14 for the first, 0.126 for the second.

Compared with “HMFDLSQRQEQIIEIVRKHGPITGEKIADLLYVTRAALRPDLAILTMSGYLEAKPRVGYTYK”, “HMTLGPKQMGEAIIKNLKEKTGKSLEEWSQRILIHELTDKKEIIDFLKNDNGLGHFQALKIFEHLNGK” is higher in “soluble fraction (log2)” value: -1.2 for the first, -0.02 for the second.

Going from “HMTVTISPGYEGRLLRSYLKNTLSLSTSALARLKTREDGITVNGVRVTVRYVLHAGDLLQLAVD” to “HMTPDLSEFKERLRQILPGEPIEVRTANDGIVLSGTVTSIAALDRALDLAERYAPDKVSNLLSVG”, the “soluble fraction (log2)” value rises from -0.597 to 0.0882.

“HMKDGAKYFQLFGLLKNEINRGIYQSGQKIPGENELAEKYGMSRQTVRQALSLLEQESLIERRQGSGTYVR” and “HMNREEFLSQLERLLYDIPAQEREEALEYYNGYFDDAGKEKEAEVIQELGSPGKVAAIIKADLSG” are within 0.2 log units of each other in “soluble fraction (log2)” value: 0.108 for the first, -0.0285 for the second.

Compared with “HMTVLPTEQDAKALVGLGEEEAAKIVEGNGWTYRIGSRDGEQFMLTEDFVTSRLTLGIEKAIVMTATI”, “HMEFLDQAFLHETMRKVNQDATINLLKKVYEVPQKFIGRKVTVQYDPEDLSRVYVKDLSFPEPVTVYPV” is higher in “soluble fraction (log2)” value: -0.915 for the first, -0.0595 for the second.

Compared with “HMVELRDGSLPLARGSVGDLVAEVQRKLGVAADGIFGPQTERAVRAFQARAGLASDGIVGPLTWSALFGA”, “HMSDIPEGYMSRVQLGDEWGIHLATFDKAVIAVKEKLGTVVFIDKSNNTTAGYSPEQQTIIYDWLAEN” is lower in “soluble fraction (log2)” value: -0.282 for the first, -1.82 for the second.

Compared with “HMITNLEPFKDFVRGFSGLHLEGVGQEKLAAALDERIRKTGSANERDYLQLIMEDVAERLKLINILT”, “HMSSEMATLRSIVDNKQAEKVHGMMVDMFTASAMVQVYDKVNDENQAKMREMLKTQKGFQRMADFALSKI” is lower in “soluble fraction (log2)” value: 0.0546 for the first, -0.172 for the second.

Compared with “HMRRRKPLVSYEYGTRVYAPSEGEPRYRVVATDADGQRVFAKFSSEEAARHRAREIEGRLATS”, “HMGANAVAAFTARVRTGPSTGYPVRISVPQGRQVRVISGPYGGWYRVSYQGLTGYTYGGLLRQG” is lower in “soluble fraction (log2)” value: -0.00468 for the first, -0.408 for the second.

Going from “HMDTDWDVSGVTPDQYRLLFSVLGGLAGVKDVGLNPDGLRIIHTPEALPSIEKAFQANGLKLKRNVD” to “HMSINIDEEKKILGPNADQIIKGITTWGQGLVSKGIWSDADFEEFKIFAATGNGINALNKVRKYY”, the “soluble fraction (log2)” value falls from 0.035 to -0.255.

“HMEEITLQEQINFIKDMLLNKEKFHLTDVITKKSKIYVVSLFLALLELIRLEEINFRQTQNFSDIIISRI” and “HMPTMEQTYIGRTMIAEEDMGKNSKIKVSGIYWTAYNKGRVIKKGEEYKITGIEGNKLIVSSK” are within 0.2 log units of each other in “soluble fraction (log2)” value: -0.138 for the first, -0.0359 for the second.

First: HMGASLVIVPGAGFLRVSASSQTRLDVYSITGMRVRSVDFEPGTTEIELPAGFYIAGGRKFFV
Second: HMYIKYETVLQNITERIAALRKNGTLVLDGERTLAAEFDASRGTIRKAMRQLEENGTILREGYVTRILPE
The “soluble fraction (log2)” value of the first is higher: -1.4 for the first, -1.61 for the second.

“HMVGAEDISKPMNLGALMRTAHAFGASFFFTINAHPKVRHAYNSDTSRSFDHMPYYPWDTMEE” and “HMLYETLKKGDQGTSVKTLQEKLKALGYLTGAADGKYGAGTETAVKSFQKAAGLTETGTADPETLSAVYAA” are within 0.2 log units of each other in “soluble fraction (log2)” value: 0.129 for the first, 0.17 for the second.

“HMNTETAVTKAIDQIQVMMDLRNRSVSFTRDQETGTDIIKVIDDNTGDTIRQMPSEELLTFMKNLTQ” and “HMTQGIDQISFSQFLDKVQSGEVTDVRISGSDITGTLKTGGKFETVAGNYEKIWDLLRENKVVFVVDSP” are within 0.2 log units of each other in “soluble fraction (log2)” value: 0.147 for the first, 0.0436 for the second.

“HMLTLAVPNSINMRLDKYLSENIDYLSRSKIQGLINDGKVTINGENEKSSYKLNGDESIVIYYEE” and “HMKSARQIAILEIIAEKSIETQEDLADALRLRGFQVTQATVSRDIKELRLVKALAPDGTYRYATAEK” are within 0.2 log units of each other in “soluble fraction (log2)” value: -0.0746 for the first, -0.0157 for the second.

Going from “HMDVKPWERQEGESAKAFEAFTIYAGLGADRSLRAVAQQLGKSKTLMDRWSSTYSWVARAAEYDADLQRK” to “HMRELSDFEKLLFTTTLERKMINLAMLLTRSNKADSKDLIQDSYLKAIENQVQFNGNNIDAWVITILKNTF”, the “soluble fraction (log2)” value rises from -0.575 to 0.139.

“HMIKEVGYEKFMQMTEEEDIGRVEIDQEENQITFTDKDETAIYKTGMVDDPDLTERLYDAGAEFS” and “HMRSFRIGGLVEQGSIARDGQSLTVRFAVTDLAHKIPVTYTGLLPDLFKEGKGVVAEGKLGPDGVFHASQV” are within 0.2 log units of each other in “soluble fraction (log2)” value: 0.0297 for the first, -0.0153 for the second.

Going from “HMTIHVMEIKSLLPIKILDESQHLVQSFSSKNPTSYNYRLIFSDKSKLENIKKTINENKDVESIEIRYA” to “HMSDPVKQVAMRILDLREISDYTVDKMAEVLNVPVEEYRKYESGEVDMPISFLVKIGEVFHVDMTELLTG”, the “soluble fraction (log2)” value rises from -0.816 to -0.219.

Going from “HMLTAPMPGTIQQILVTKGQKVRSGQTLMILEAMKMEHKIKAPNSGEIISINYSLGNRVEMGANLIEI” to “HMRPPLRAAIIDHLARDWHTVAELARLLPASGAHVSRLVVELRAVGAVDERISHPDWPGNRPTEYRLRRA”, the “soluble fraction (log2)” value falls from -1.13 to -3.58.

Going from “HMSRQDYLQTIYRLSVGKGYTTNKKIADFLSVSKPSVTEMIGKLQGEGLVAMDGAHIFLTEDGAEQ” to “HMEKIELKTVIPENLKKKRLDFALSELFPEHSRSRIQSWIKEGSVMVNSKNYRQRDLVDAGDVVEINTEQK”, the “soluble fraction (log2)” value rises from -0.567 to 0.236.

First: HMAVIILDEPTLGLDPAVRISLWQAIQSARDSTMSAFLITTHYIKEVADYLSAVKILDHGREVASGNPSAL
Second: HMRKEDYLPIGSVINMDDRKFRVDSVDFDKDKVSLQDMALADARMPIFWEEPLTVVRELYEQQDE
The “soluble fraction (log2)” value of the first is lower: -0.302 for the first, 0.0652 for the second.

Going from “HMNPFLELTEREMDVLRLIAIGRNNQEIASELVISEKTVKTHITNIFSKLHFKDRTQAAAYAWQSGIVR” to “HMQNDDLTKLDGIGPYIEQRLNDIGIYNYEQLSKLNTEDIQKITELIDFFPGRIERDNWVSQAQLLKI”, the “soluble fraction (log2)” value rises from -0.74 to -0.316.

Going from “HMATTIDFTVGDDVQVMNGPLESFTGKVTELNEASQKVKVDVVMFGRVTNVELDFVQVKKIT” to “HMGDTPVDFSEFIRWVDTGVVDRVELTGNEIVGTSSSGERFSTYAPPQYEGLGNKLIERDIVVVATAA”, the “soluble fraction (log2)” value falls from 0.162 to -0.164.

Compared with “HMKQVSDTGAIDAAIREVMDANPDKVAEYRSGKDKLFGFFVGQIMRAMAGKAAPVVVNDRLKALLD”, “HMPDTETLTPRQRQILDLVQELGFTTIETLAERFGVSAQTVRREIIRLQAGNFLQRFHGGAGLASGGIRSA” is lower in “soluble fraction (log2)” value: 0.355 for the first, -0.632 for the second.

Going from “HMTSTEQEILIEHMVDRLPALRKKYGISQTELGEKIGLSRQTISAIERKTTPLTWTTMLAILMFFT” to “HMQQVIQSGQKVQLMATDGSFQVSAEGVALKNGSVGEVIGVRMPSGRVISGVVSASGAVEVR”, the “soluble fraction (log2)” value rises from -1.7 to 0.146.

“HMAASEAESIRILLSEGVDRVHLRKPQSAEADMRRLIEALPPELYPRLTLQDHLHLAGEYGT” and “HMNEAVVVPDVKGLTLDEADEFFKNSKLRYNVVDSVFSKDVAPGAIVELVPVAGSKVKENRIVFVTINAQ” are within 0.2 log units of each other in “soluble fraction (log2)” value: 0.0186 for the first, -0.17 for the second.

First: HMSFSPYLVRVSITDLNIRKGPGTNYAKTGKFTGKGVFTIVEMQTGKGSDTGWGRLKSGAGWISLDYTEKI
Second: HMPTFAEKLHEVRKARDFTQDQLAKEMNVSRQTISHWENGRAVPDIDTIKHLSQVLDYNFLV
The “soluble fraction (log2)” value of the first is lower: -3 for the first, 0.124 for the second.

Going from “HMAEVPDLRNKTQQEAEAELTNHNLKLGNVTEEYSATVEAGRVISQSTSYGTKVLEGSSVDITISKGPEPT” to “HMIADPAKPDWTTILAPVTTGTTVTHKTFGQGTVTKLDKTKKYLTVSFAAGQKNFVFPNAFIDGFLK”, the “soluble fraction (log2)” value rises from -0.0123 to 0.203.

Compared with “HMNKWMQLASEEDKKLFNEAPKEIQDSITESAKFFDIRTKADVDTFWANTGLRQMKQQAMLNESFVNEY”, “HMDDVGERIRKIREEKNLSLDEISKMTGFDVEFLAKIENKERQPQLGTVIKLSKALDSAFGRL” is higher in “soluble fraction (log2)” value: -0.0275 for the first, 0.221 for the second.

“HMTPVSQIATKDIEEKIDSLSDEYKDPFILHFKGFKYKEIADQLDIPIGTVKSRIFIARKKLIDLLPDY” and “HMGFSDDEHNALADADLKKALEVTTNKSETQYNIAKLIYSYIISLGDKKPYGDWSYDKALSIIHDA” are within 0.2 log units of each other in “soluble fraction (log2)” value: -0.115 for the first, 0.0519 for the second.

“HMEIYIDGNKYVGELRNGKPNGRGTITYTGDGSKYVGEWKNGKRYGRGKMAYTNGTTKEGVWKDDEFLYAT” and “HMSQLSDEQELRDIARGIIEGNPNEAEKYRAGRTGLLGFFVGKLMAETEGKANPRLASRILKELLE” are within 0.2 log units of each other in “soluble fraction (log2)” value: 0.0597 for the first, -0.0477 for the second.

Going from “HMNAAFMKAERLLAILNILLTGKRVSSTELAKKLEVSVRTVYRDVEALSEAGFPVYATMGRDGGFGLIEGF” to “HMALPEHIEPFLRGLGQALAEGDSYEDVQERLLRAYPYLDSTEFQTALARVIFISDLWGRLN”, the “soluble fraction (log2)” value rises from -1.95 to -1.55.

Compared with “HMGVSLREVPVAEHGDWIGRPIKELGIPAEVLIVLVRRADGTTVVPKGGTVLQQGDMLVVNEWEE”, “HMNDNTAINEFKKMVFTRMVHLQIDNAELSKLSGVTNSKILALKYGNSNTLKLGDIVKVAKTLNINLNDL” is lower in “soluble fraction (log2)” value: -0.426 for the first, -2.7 for the second.

Compared with “HMIQVNKTQALIIEEMRDNPNITLLELQKTLSLGRTAIQNNVSSLRKRQIIKRVGSNKNGYWEVTDK”, “HMGSEYPSNPLASRWAKGVRLYHDEWGYGVIQAARGSEPDDYVITVRFESGAEKSFLPKFQAHSLMIVKD” is higher in “soluble fraction (log2)” value: -1.95 for the first, -0.161 for the second.

“HMGLSNYEFNSISQTVKEKLEQGPLTLKALVDETAHLFAEDKVVSVVQWLIDQRDLAYDDHGLLQWKG” and “HMEVAVQFIEFKIPENHAWIGKEIREITFPPESILVLIIRDGKKLVPNGKTVLKEGDSLILSGKASD” are within 0.2 log units of each other in “soluble fraction (log2)” value: -0.418 for the first, -0.538 for the second.

First: HMYYDDEELDDYRGKASDAYTAAEVEQFEEVLTTMRPEEVHGWLRSLQLRGVALPDALKDEAYMIVSEQAE
Second: HMVDQKLIQASAEHSGIRIDRFLSEQLPEHSRSYIQKLIKDGQVSIGGKAVKSNYKIAGTEEISLLIPDQ
The “soluble fraction (log2)” value of the first is lower: -0.252 for the first, 0.0523 for the second.

Compared with “HMNFEIEVTENGKRIDSYLAEELDLSRSKVQKLIKQELVTVNGKVVSNNYNVKLGDTILVNDD”, “HMGFPAPFDGKAVAELRRRLGLTRRGLAEELSVSPSTVDKWEQGDVALRSPALTILKILWHQGLKALPP” is lower in “soluble fraction (log2)” value: 0.0352 for the first, -1.52 for the second.

Compared with “HMQQELDAFKLLITVSGVGPKAAMAVLSVLPPDRLSIAVSSGDVKSIQSAQGVGKKTAERIVLELKDKM”, “HMDYYSILGVDRNATGEDIKKAFKKKAMKYHPDRNPDNKESERKFKEAKEAYDTLSNPQKKSMYDQFGT” is higher in “soluble fraction (log2)” value: -0.814 for the first, 0.0734 for the second.

With “HMSREVTVPPLSGLTLRDAARTLAERGLLMEAEGQGAVHRQDPPAGTRVPTGTPVRVFLTLPEQNS” the “soluble fraction (log2)” value was 0.333.
